For assay [1], the system named is FTase. To be noted: addition of GDP or GTPγS; cited from earlier work.
Another assay concerns the target GGTase-I (Rattus norvegicus, UniProt P53610+Q04631). The assay is described as follows: Radiolabel prenylation assay: GGTase-I-catalyzed geranylgeranylation of RhoA. The format is biochemical.
A further assay addresses RhoA. The settings on record: read-out: Kd of RhoA for GTPγS; with Mg^2+; cited from earlier work.
Assay [2] has as its target FTase. To be noted: FTase binding; cited from earlier work.
Assay [3] has as its target biotinylated SmgGDS-607 (human) (UniProt P52306). The assay is described as follows: BLI.
For assay [4] the target is unchanged. Description: BLI. The source holds these as a separate data set.
In assay [5] the target is RhoA 13mer (5-fam-…) (human). The assay is described as follows: fluorescence polarisation. In general terms: Polarisation of emitted light reports the rotation of a fluorescent probe.
Assay [6] concerns the target geranylgeranylated RhoA 13mer peptide (human). The assay is described as follows: fluorescence polarisation.
For a further assay, the system named is SmgGDS-607. The settings on record: non-farnesylated versus farnesylated RhoA; cited from earlier work.
In assay [7] the target is RhoA CaaX only peptide (5fam-GCLVL) (human). The assay is described as follows: fluorescence polarisation.
A further assay has as its target T1, SmgGDS-558 (human, UniProt P52306-2 1-558).
T1 sequence (looked up): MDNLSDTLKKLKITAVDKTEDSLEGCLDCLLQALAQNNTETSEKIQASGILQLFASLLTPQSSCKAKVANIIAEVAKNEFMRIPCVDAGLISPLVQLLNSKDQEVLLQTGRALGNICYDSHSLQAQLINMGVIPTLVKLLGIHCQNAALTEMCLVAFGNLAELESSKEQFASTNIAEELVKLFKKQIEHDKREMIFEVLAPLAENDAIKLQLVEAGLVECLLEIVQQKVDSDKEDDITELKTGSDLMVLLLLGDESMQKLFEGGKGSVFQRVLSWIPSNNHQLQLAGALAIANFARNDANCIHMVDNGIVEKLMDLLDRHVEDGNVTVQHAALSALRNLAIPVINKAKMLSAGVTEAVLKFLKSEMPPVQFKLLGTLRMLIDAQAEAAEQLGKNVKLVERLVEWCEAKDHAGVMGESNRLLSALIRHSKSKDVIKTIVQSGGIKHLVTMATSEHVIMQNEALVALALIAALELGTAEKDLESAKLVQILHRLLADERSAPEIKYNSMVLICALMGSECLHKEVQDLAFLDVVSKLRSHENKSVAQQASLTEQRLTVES
Description: fluorescence polarisation.

Another assay concerns the target RhoA (human). Description: inhibition of radiolabel prenylation.

Like-named read-outs stand apart in the source and are kept apart here. Ends that are not written are not given here. * marks the point of attachment. 5FAM = O=C1OC2(c3ccc(O)cc3Oc3cc(O)ccc32)c2ccc(C(=O)*)cc21

A word on the Kd: it is the equilibrium constant for the complex coming apart. A word on the Ki: it is the equilibrium dissociation constant of an inhibitor or competing ligand from its target.

Sequence of GGTase-I (P53610 whole entry, one chain of several): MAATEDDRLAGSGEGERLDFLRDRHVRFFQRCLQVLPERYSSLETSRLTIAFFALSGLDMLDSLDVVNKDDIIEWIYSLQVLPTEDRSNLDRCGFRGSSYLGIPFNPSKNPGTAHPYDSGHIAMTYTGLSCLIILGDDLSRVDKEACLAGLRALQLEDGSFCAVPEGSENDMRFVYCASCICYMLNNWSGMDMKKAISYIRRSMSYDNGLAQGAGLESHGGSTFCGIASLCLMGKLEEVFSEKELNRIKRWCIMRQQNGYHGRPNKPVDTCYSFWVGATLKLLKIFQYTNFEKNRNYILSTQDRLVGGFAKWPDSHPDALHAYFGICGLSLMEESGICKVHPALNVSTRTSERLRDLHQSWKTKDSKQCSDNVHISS

For the molecule `Nc1nc2c(ncn2[C@@H]2O[C@H](COP(=O)(O)OP(=O)(O)O)[C@@H](O)[C@H]2O)c(=O)[nH]1` [GDP], the “FTase activity for farnesylation of H-Ras” value in the assay on FTase [1] is “unaffected”. In addition, at GGTase-I (20 μM GDP without SmgGDS-607, RhoA 3 μM, GGTase-I 10 nM, 3H-GGPP 1.8 μM, 4 min), the “effect of GDP on GGTase-I activity for RhoA” value is “does not affect GGTase-I activity for RhoA”. The “effect of nucleotide on initial rate of RhoA geranylgeranylation” value on GGTase-I (25 μM GTP or GDP, RhoA 1.3 μM, GGTase-I 5 nM, 3H-GGPP 9 μM, without SmgGDS) is recorded as “No difference was observed”. Also, at GGTase-I (25 μM GTP or GDP, incubation 2 hr, RhoA 1.3 μM, GGTase-I 5 nM, without SmgGDS), the “effect of nucleotide on endpoint level of incorporated isoprenoid” value is “no significant difference”.
Turning to `Nc1nc2c(ncn2[C@@H]2O[C@H](COP(=O)(O)OP(=O)(O)OP(O)(O)=S)[C@@H](O)[C@H]2O)c(=O)[nH]1` [GTPγS], the Kd at RhoA was 160 nM.
Turning to GCVLS, the Kd on FTase [2] is 58 nM.
In the case of RhoA (natural protein), the Kd in assay [3] is 249 nM; in assay [4] it was 77 nM.
In the case of “SmgGDS-607 (from UniProt P52306-1 1-607) (natural protein)”, the Kd is 1900 nM in assay [5] and over 16000 nM in assay [6].
For the molecule “non-farnesylated RhoA: non-farnesylated RhoA of the recent structural study”, in the assay with SmgGDS-607, the “affinity for SmgGDS-607” value is “had higher affinity for SmgGDS-607 than farnesylated RhoA”.
Take “protein geranylgeranyltransferase I (from UniProt Q04631 1-377) (complex)”: the Kd came out at 2200 nM in assay [7] and 56 nM in [5].
As to 5FAM-GCLVL [RhoA CaaX only peptide (5fam-GCLVL)], in the assay with SmgGDS-558, the Kd was over 40000 nM.

B1: SmgGDS-607 (natural protein)
chain: MDNLSDTLKKLKITAVDKTEDSLEGCLDCLLQALAQNNTETSEKIQASGILQLFASLLTPQSSCKAKVANIIAEVAKNEFMRIPCVDAGLISPLVQLLNSKDQEVLLQTGRALGNICYDSHEGRSAVDQAGGAQIVIDHLRSLCSITDPANEKLLTVFCGMLMNYSNENDSLQAQLINMGVIPTLVKLLGIHCQNAALTEMCLVAFGNLAELESSKEQFASTNIAEELVKLFKKQIEHDKREMIFEVLAPLAENDAIKLQLVEAGLVECLLEIVQQKVDSDKEDDITELKTGSDLMVLLLLGDESMQKLFEGGKGSVFQRVLSWIPSNNHQLQLAGALAIANFARNDANCIHMVDNGIVEKLMDLLDRHVEDGNVTVQHAALSALRNLAIPVINKAKMLSAGVTEAVLKFLKSEMPPVQFKLLGTLRMLIDAQAEAAEQLGKNVKLVERLVEWCEAKDHAGVMGESNRLLSALIRHSKSKDVIKTIVQSGGIKHLVTMATSEHVIMQNEALVALALIAALELGTAEKDLESAKLVQILHRLLADERSAPEIKYNSMVLICALMGSECLHKEVQDLAFLDVVSKLRSHENKSVAQQASLTEQRLTVES
On to B1, for which the Ki with RhoA (human) was 85 nM.

These data come from PMC6686180 (Biochemistry, 2018).
